This test has as its target MUC-1 gene product, the membrane mucin glycoprotein (polymorphic epithelial mucin or PEM) (human, UniProt P15941 24-1255). In words: flow cytometry equilibrium binding on MCF7 cells. (In general: In flow cytometry, cells or beads pass a laser one at a time.)

Consider 1 molecule from patent US20060193849A1 (published 2006).

One may read the Kd as the concentration at which binding is half-saturated. A lower Kd goes with tighter binding.

Chain of MUC-1 gene product, the membrane mucin glycoprotein (polymorphic epithelial mucin or PEM) (P15941 24-1255): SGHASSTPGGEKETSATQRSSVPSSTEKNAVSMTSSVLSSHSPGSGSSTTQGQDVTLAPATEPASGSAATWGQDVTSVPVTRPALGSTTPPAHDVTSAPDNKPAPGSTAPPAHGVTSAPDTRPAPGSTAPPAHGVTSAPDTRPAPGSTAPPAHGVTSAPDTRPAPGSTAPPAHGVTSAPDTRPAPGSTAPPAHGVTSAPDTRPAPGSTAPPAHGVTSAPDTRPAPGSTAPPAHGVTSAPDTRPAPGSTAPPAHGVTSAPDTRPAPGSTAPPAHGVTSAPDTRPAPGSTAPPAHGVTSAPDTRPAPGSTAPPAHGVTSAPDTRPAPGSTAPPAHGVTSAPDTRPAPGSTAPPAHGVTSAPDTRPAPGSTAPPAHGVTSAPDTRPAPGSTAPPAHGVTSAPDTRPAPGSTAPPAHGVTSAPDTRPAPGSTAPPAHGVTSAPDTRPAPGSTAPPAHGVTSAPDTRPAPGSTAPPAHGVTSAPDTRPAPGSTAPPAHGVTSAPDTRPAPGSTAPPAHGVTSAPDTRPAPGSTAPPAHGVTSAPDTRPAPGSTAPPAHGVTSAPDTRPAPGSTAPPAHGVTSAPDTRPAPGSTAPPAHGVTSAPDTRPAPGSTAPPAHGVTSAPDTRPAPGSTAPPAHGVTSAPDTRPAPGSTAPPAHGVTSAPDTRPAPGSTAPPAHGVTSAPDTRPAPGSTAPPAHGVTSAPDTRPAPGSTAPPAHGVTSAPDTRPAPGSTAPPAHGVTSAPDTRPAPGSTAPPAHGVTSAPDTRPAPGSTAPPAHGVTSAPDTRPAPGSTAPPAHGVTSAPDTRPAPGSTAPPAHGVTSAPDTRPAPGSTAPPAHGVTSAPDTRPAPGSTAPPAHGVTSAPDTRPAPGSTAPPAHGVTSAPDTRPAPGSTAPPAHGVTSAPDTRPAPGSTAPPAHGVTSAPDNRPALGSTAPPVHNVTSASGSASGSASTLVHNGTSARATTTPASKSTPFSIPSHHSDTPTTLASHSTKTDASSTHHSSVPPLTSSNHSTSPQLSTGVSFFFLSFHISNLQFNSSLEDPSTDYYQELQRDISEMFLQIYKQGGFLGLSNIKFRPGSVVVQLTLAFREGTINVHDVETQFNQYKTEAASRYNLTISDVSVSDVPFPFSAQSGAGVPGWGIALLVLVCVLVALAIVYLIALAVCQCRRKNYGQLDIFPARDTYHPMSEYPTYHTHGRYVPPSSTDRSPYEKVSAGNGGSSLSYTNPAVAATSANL

B1: huHMFG1 wild-type scFv 4.10W (scFv)
scFv: QVQLVQSGAEVKKPGASVKVSCKASGYTFSAYWIEWVRQAPGKGLEWVGEILPGSNNSRYNEKFKGRVTVTRDTSTNTAYMELSSLRSEDTAVYYCARSYDFAWFAYWGQGTLVTVSSGGGGSGGGGSGGGGSDIQMTQSPSSLSASVGDRVTITCKSSQSLLYSSNQKIYLAWYQQKPGKAPKLLIYWASTRESGVPSRFSGSGSGTDFTFTISSLQPEDIATYYCQQYYRYPRTFGQGTKVEIKR
The molecule B1 displayed a Kd of 114 nM.
